{
  "source": "paper PMC4006878",
  "about": "(Organic letters, 2013)",
  "target": "GLP-1R (Homo sapiens, UniProt P43220)",
  "sequence (P43220 24-463)": "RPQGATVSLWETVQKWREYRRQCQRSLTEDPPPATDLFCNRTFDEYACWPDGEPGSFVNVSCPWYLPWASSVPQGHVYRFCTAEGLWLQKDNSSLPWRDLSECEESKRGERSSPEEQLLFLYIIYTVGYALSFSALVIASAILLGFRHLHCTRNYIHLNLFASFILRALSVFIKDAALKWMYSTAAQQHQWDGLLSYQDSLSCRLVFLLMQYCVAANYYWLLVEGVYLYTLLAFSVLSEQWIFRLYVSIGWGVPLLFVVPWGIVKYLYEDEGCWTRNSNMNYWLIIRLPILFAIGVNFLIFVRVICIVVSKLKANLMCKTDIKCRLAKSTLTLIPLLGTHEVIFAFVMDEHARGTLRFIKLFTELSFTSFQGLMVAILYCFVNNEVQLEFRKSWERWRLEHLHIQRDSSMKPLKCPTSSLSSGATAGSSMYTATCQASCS",
  "test": "cAMP response element luciferase reporter gene assay in GLP-1R+ CHO-K1 cells",
  "type": "cell-based",
  "details": "1 μM of the ligand, Figure 3A",
  "data": [
    {"substance": "exendin-4_9-39: exendin-4 fragment 9-39 used at 1 μM to inhibit GLP-1R activation", "values": [
      {"measurement": "inhibition of GLP-1 agonism at GLP-1R", "value": "inhibited"}
    ]}
  ]
}
